Results published in patent US20200392228A1 (PANDION OPERATIONS, published 2020).
Residue numbers refer to the chain shown, from its start. Blank lines part the entries; values can stand above or below the binder they belong to.

Target: T1, mouse MAdCAM expressed on cells (mouse, UniProt Q61826 22-405)
T1 construct: whole, on cells
T1 sequence (looked up): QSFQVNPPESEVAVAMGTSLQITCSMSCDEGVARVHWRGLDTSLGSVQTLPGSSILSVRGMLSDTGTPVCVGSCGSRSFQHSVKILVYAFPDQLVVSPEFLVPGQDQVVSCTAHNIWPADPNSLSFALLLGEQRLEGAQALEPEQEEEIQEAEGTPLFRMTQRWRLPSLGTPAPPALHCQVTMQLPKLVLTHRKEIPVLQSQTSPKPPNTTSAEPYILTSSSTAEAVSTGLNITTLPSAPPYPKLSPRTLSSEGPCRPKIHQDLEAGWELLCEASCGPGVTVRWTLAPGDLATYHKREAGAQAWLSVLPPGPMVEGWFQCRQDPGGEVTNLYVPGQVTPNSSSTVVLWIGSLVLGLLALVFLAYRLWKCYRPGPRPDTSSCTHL
Test: cell binding

B1: MAdCAM antibody Clone ID 62 of Table 7 (IgG) (antibody, V domains shown)
VH: QVQLVQSGAEVKKPGASVKVSCKASGYTFTSYDINWVRQAPGQGLEWMGWINPNSGTTGYAQKFQGRVTMTRDTSTSTVYMELSSLRSEDTAVYYCARSPYYYYGMDVWGQGTTVTVSS
VL: DIQMTQSPSSLSASVGDRVTITCRASHFISRWVAWYQQKPGKAPKLLIYAASTLQSGVPSRFSGSGSGTDFTLTISSLQPEDFATYYCQQSYSGISFGPGTKVDIK
notes: IgG format
binding result: no binding

B2: MAdCAM antibody Clone ID 55 of Table 7 (IgG) (antibody, V domains shown)
VH: EVQLLESGGGLVQPGGSLRLSCAASGFTFDDFAMHWVRQAPGKGLEWVSGISGNGDSRYYADSVKGRFTISRDNSKNTLYLQMNSLRAEDTAVYYCARDASYGGNYGMDVWGQGTTVTVSS
VL: DIQMTQSPSSLSASVGDRVTITCQASQDIRNYLNWYQQKPGKAPKLLIYKASTLESGVPSRFSGSGSGTDFTLTISSLQPEDFATYYCQQANSFPLTFGPGTKVDIK
notes: IgG format
binding result: no binding

B3: MAdCAM antibody Clone ID 73 of Table 7 (IgG) (antibody, V domains shown)
VH: QVQLVQSGAEVKKPGASVKVSCKASGYTFTSNYVHWVRQAPGQGLEWMGRINPHSGDTSYAQKFQGRVTMTRDTSTSTVYMELSSLRSEDTAVYYCARAGQLWSDWYFDLWGRGTLVTVSS
VL: B2 VL with K50A, S52T, T53A, E55R, S56T, A91S, N92Y, F94H, P100Q, D105E
notes: IgG format
binding result: no binding

B4: MAdCAM antibody Clone ID 80 of Table 7 (IgG) (antibody, V domains shown)
VH: EVQLLESGGGLVQPGGSLRLSCAASGFTFDDYAMHWVRQAPGKGLEWVSAISGSGGSTYYADSVKGRFTISRDNSKNTLYLQMNSLRAEDTAVYYCAKDLGVVVPAALDYWGQGTTVTVSS
VL: B2 VL with R30S, Y32H, K50D, T53N, S56A, A91S, N92Y, F94T, P100G, D105E
notes: IgG format
binding result: no binding

B5: MAdCAM antibody Clone ID 64 of Table 7 (IgG) (antibody, V domains shown)
VH: EVQLLESGGGLVQPGGSLRLSCAASGFTFSNSDMNWVRQAPGKGLEWVAHIWNDGSQKYYADSVKGRFTISRDNSKNTLYLQMNSLRAEDTAVYYCARDRTDPGYSSAMDVWGQGTTVTVSS
VL: B2 VL with Q24R, N34G, K50D, T53S, S56T, N92T, F94L, P100G, D105E
notes: IgG format
binding result: no binding

B6: MAdCAM antibody Clone ID 66 of Table 7 (IgG) (antibody, V domains shown)
VH: QVQLVQSGAEVKKPGASVKVSCKASGYTFTGHYMHWVRQAPGQGLEWMGIINPSGGSTSYAQKFQGRVTMTRDTSTSTVYMELSSLRSEDTAVYYCARDGAWFGEEYYYGMDVWGQGTTVTVSS
VL: DIQMTQSPSSLSASVGDRVTITCRASQGISNWLAWYQQKPGKAPKLLIYDASNLETGVPSRFSGSGSGTDFTLTISSLQPEDFATYYCQQYYSFPLYTFGQGTKVEIK
notes: IgG format
binding result: no binding

B7: MAdCAM antibody Clone ID 63 of Table 7 (IgG) (antibody, V domains shown)
VH: EVQLLESGGGLVQPGGSLRLSCAASGFTFNNYGMNWVRQAPGKGLEWVSRINSDGSSTSYADSVKGRFTISRDNSKNTLYLQMNSLRAEDTAVYYCARGAYYYYYMDVWGQGTLVTVSS
VL: EIVMTQSPATLSVSPGERATLSCRASQSVSGSYLAWYQQKPGQAPRLLIYATSSRASGIPARFSGSGSGTEFTLTISSLQSEDFAVYYCQQYYSGLTFGQGTKVEIK
notes: IgG format
binding result: no binding

B8: MAdCAM antibody Clone ID 54 of Table 7 (IgG) (antibody, V domains shown)
VH: QVQLVQSGAEVKKPGSSVKVSCKASGGTLSRYGVSWVRQAPGQGLEWMGGIIPIFGTTNYAQKFQGRVTITADESTSTAYMELSSLRSEDTAVYYCARDRVYYDSSGYPTWYFDLWGRGTLVTVSS
VL: EIVMTQSPATLSVSPGERATLSCRASQSVSSSYLAWYQQKPGQAPRLLIYGASTRATGIPARFSGSGSGTEFTLTISSLQSEDFAVYYCQQYGSSPITFGQGTKVEIK
notes: IgG format
binding result: no binding

B9: MAdCAM antibody Clone ID 9 of Table 7 (IgG) (antibody, V domains shown)
VH: QVQLVQSGAEVKKPGASVKVSCKASGYTFTSYYMHWVRQAPGQGLEWMGIINHSGGSTSYAQKFQGRVTMTRDTSTSTVYMELSSLRSEDTAVYYCARPYSGWYFAFDIWGQGTLVTVSS
VL: not shown
notes: IgG format
binding result: no binding

B10: MAdCAM antibody Clone ID 35 of Table 7 (IgG) (antibody, V domains shown)
VH: QVQLVQSGAEVKKPGASVKVSCKASGYTFTGYYIHWVRQAPGQGLEWMGWMNPNSGNTGYAQKFQGRVTMTRDTSTSTVYMELSSLRSEDTAVYYCARDPGFLGYSSGGSSYDGWFDPWGQGTLVTVSS
VL: DIQMTQSPSSLSASVGDRVTITCRASQSISSYLHWYQQKPGKAPKLLIYAASSLQSGVPSRFSGSGSGTDFTLTISSLQPEDFATYYCQQSYTAPYTFGQGTKLEIK
notes: IgG format
binding result: no binding

B11: MAdCAM antibody Clone ID 72 of Table 7 (IgG) (antibody, V domains shown)
VH: QVQLVQSGAEVKKPGASVKVSCKASGYTFTSYYMHWVRQAPGQGLEWMGVINPIGGTTTYAQKFQGRVTMTRDTSTSTVYMELSSLRSEDTAVYYCASGAPSYYYYGMDVWGQGTLVTVSS
VL: B10 VL with H34N, A50G, A51T, S53Y, Q55A, S56T, T93S, A94T, Y96L, L104V
notes: IgG format
binding result: no binding

B12: MAdCAM antibody Clone ID 69 of Table 7 (IgG) (antibody, V domains shown)
VH: QVQLVQSGAEVKKPGASVKVSCKASGYTFTSYYMHWVRQAPGQGLEWMGIIDPSGGSTSYAQKFQGRVTMTRDTSTSTVYMELSSLRSEDTAVYYCAREEWSSGGVGYFDYWGQGTLVTVSS
VL: B10 VL with S28G, H34A, A51T, S56T, S91T, T93S, A94I, Y96I, K103R
notes: IgG format
binding result: no binding

B13: MAdCAM antibody Clone ID 70 of Table 7 (IgG) (antibody, V domains shown)
VH: QVQLVQSGAEVKKPGASVKVSCKASGYPFTDYYMHWVRQAPGQGLEWMGWIKPNSGDTEYAQKFQGRVTMTRDTSTSTVYMELSSLRSEDTAVYYCARDRFVGKPDYYYYGMDVWGQGTMVTVSS
VL: B10 VL with S31V, Y32W, H34A, T93D, A94T
notes: IgG format
binding result: no binding

B14: MAdCAM antibody Clone ID 71 of Table 7 (IgG) (antibody, V domains shown)
VH: QVQLVQSGAEVKKPGASVKVSCKASGYTFTSYYMHWVRQAPGQGLEWMGIINPSGGSTSYAQKFQGRVTMTRDTSTSTVYMELSSLRSEDTAVYYCARDSVAGTGGRYYGMDVWGQGTLVTVSS
VL: B10 VL with S28G, S31N, L33F, H34A, S56G, T93S, A94L
notes: IgG format
binding result: no binding

B15: MAdCAM antibody Clone ID 53 of Table 7 (IgG) (antibody, V domains shown)
VH: QVQLVQSGAEVKKPGASVKVSCKASGYTFTSYYMHWVRQAPGQGLEWMGWMNPNSGNTGYAQKFQGRVTMTRDTSTSTVYMELSSLRSEDTAVYYCAREGLGYCTNGVCWNYYGMDVWGQGTLVTVSS
VL: B10 VL with S28G, Y32W, H34A, A50G, T93S, A94T, L104V
notes: IgG format
binding result: no binding

B18: MAdCAM antibody Clone ID 12 of Table 7 (IgG) (antibody, V domains shown)
VH: QVQLVQSGAEVKKPGASVKVSCKASGYTLTTWYMYWVRQAPGQGLEWMGWINPNRGATNYAQKFQGRVTMTRDTSTSTVYMELSSLRSEDTAVYYCAKGDLWGAMDVWGQGTLVTVSS
VL: B10 VL with Q27D, S28N, S30G, Y32W, H34A, S91G, T93S, A94T, Y96P, L104V
notes: IgG format
binding result: no binding

Now from value to binder:

binding result: no binding
B16: MAdCAM antibody Clone ID 40 of Table 7 (IgG) (antibody, V domains shown)
VH: B18 VH
VL: B10 VL with Q27D, S28N, S30G, Y32W, H34A, S91G, T93S, A94T, Y96P, L104V
notes: IgG format

binding result: no binding
B17: MAdCAM antibody Clone ID 32 of Table 7 (IgG) (antibody, V domains shown)
VH: B18 VH
VL: B10 VL with Q27D, S28N, S30G, Y32W, H34A, S91G, T93S, A94T, Y96P, L104V
notes: IgG format

binding result: no binding
B19: MAdCAM antibody Clone ID 67 of Table 7 (IgG) (antibody, V domains shown)
VH: QVQLVQSGAEVKKPGASVKVSCKASGYTFTGYYMHWVRQAPGQGLEWMGMIYPRDGSTSYAQKFQGRVTMTRDTSTSTVYMELSSLRSEDTAVYYCAMTGWGYGMDVWGKGTTVTVSS
VL: B10 VL with S28G, S30N, S31N, H34A, A50D, S53T, T93S, Y96P
notes: IgG format

binding result: no binding
B20: MAdCAM antibody Clone ID 56 of Table 7 (IgG) (antibody, V domains shown)
VH: EVQLVESGGGLVKPGGSLRLSCAASGFTFSSYWMSWVRQAPGKGLEWVSAIGTGGGTYYAAPVKGRFTISRDDSKNTLYLQMNSLKTEDTAVYYCAREWLVPYYGMDVWGQGTTVTVSS
VL: B10 VL with S31R, Y32W, H34A, A50G, S53N, T93S, A94T, Y96W, L104V
notes: IgG format

binding result: no binding
B21: MAdCAM antibody Clone ID 33 of Table 7 (IgG) (antibody, V domains shown)
VH: B18 VH with L113T
VL: B10 VL with Q27D, S28N, S30G, Y32W, H34A, S91G, T93S, A94T, Y96P, L104V
notes: IgG format

binding result: no binding
B22: MAdCAM antibody Clone ID 61 of Table 7 (IgG) (antibody, V domains shown)
VH: QVQLVQSGAEVKKPGASVKVSCKASGDTFTGYYIHWVRQAPGQGLEWMGWINPNSGGTNYAQKFQGRVTMTRDTSTSTVYMELSSLRSEDTAVYYCARSGLWLGSYYGMDVWGQGTLVTVSS
VL: DIQMTQSPSSLSASVGDRVTITCRASQTISIWLAWYQQKPGKAPKLLIYDASTLQSGVPSRFSGSGSGTDFTLTISSLQPEDFATYYCQQYSSYPLTFGQGTKVEIK
notes: IgG format

binding result: no binding
B23: MAdCAM antibody Clone ID 68 of Table 7 (IgG) (antibody, V domains shown)
VH: EVQLLESGGGLVQPGGSLRLSCAASGFTFGDYAMSWVRQAPGKGLEWVAVVSYDGTNKYYADSVKGRFTISRDNSKNTLYLQMNSLRAEDTAVYYCAKDICSSTSCYFDLWGRGTLVTVSS
VL: DIQMTQSPSSLSASVGDRVTITCRASQNINNYVNWYQQKPGKAPKLLIYDASNLETGVPSRFSGSGSGTDFTLTISSLQPEDFATYYCQQANSFPPTFGQGTRLEIK
notes: IgG format

binding result: no binding
B24: MAdCAM antibody Clone ID 26 of Table 7 (IgG) (antibody, V domains shown)
VH: EVQLLESGGGLVQPGGSLRLSCAASGFTFSSYAMSWVRQAPGKGLEWVSYISSSSTYTNYADSVKGRFTISRDNSKNTLYLQMNSLRAEDTAVYYCARANSSSWYDWYFDLWGQGTLVTVSS
VL: not shown
notes: IgG format

binding result: no binding
B25: MAdCAM antibody Clone ID 45 of Table 7 (IgG) (antibody, V domains shown)
VH: EVQLVESGGGLVKPGGSLRLSCAASGFTFGDYAMSWVRQAPGKGLEWVSYISGDIGYTNYAAPVKGRFTISRDDSKNTLYLQMNSLKTEDTAVYYCARDVAATGNWYFDLWGRGTLVTVSS
VL: not shown
notes: IgG format
